Measured values: paper PMC10937712, “Natural variation in OsMYB8 confers diurnal floret opening time divergence between indica and japonica subspecies”

T1: OsMYB8 (Oryza sativa, UniProt A0A0P0V5Q1 51-278)
T1 sequence: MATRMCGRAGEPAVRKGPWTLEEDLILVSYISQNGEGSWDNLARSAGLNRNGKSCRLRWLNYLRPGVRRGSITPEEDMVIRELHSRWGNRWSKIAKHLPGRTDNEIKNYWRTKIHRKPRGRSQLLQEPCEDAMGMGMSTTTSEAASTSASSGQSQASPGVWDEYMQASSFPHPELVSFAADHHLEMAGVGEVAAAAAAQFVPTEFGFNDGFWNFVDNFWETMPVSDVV

B1: JAR1-P1-probe (dsDNA)
DNA 1: AAAATAAATGACTTAGGAAAGAACCAAAACATCTTACATTATAGTATAAAGAAG
DNA 2: CTTCTTTATACTATAATGTAAGATGTTTTGGTTCTTTCCTAAGTCATTTATTTT
B2: JAR1-P3-probe (dsDNA)
DNA 1: CAGTGTACCTAGTGATGTACCCGCCGAATACGTACGCGTGTATGCATGGGTAGAGA
DNA 2: TCTCTACCCATGCATACACGCGTACGTATTCGGCGGGTACATCACTAGGTACACTG

Target: T1, OsMYB8
Assay: EMSA; Beyotime chemiluminescent EMSA kit binding buffer (composition, salt, pH not stated), 20 min, room temperature, 5% native PAGE; 5x and 20x cold competitor
Details: protein: recombinant; tags: N-terminal GST (pGEX-4T1); label: biotin; blunt

Binder | binding result
B1 | binds
B2 | binds
